Target: MERTK (UniProt Q12866)
Assay: phosphorylation enrichment, bacterial display (enrichment ratio); higher = better substrate or ligand; peptides without Tyr show the background
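Further: 11-residue human phosphosite peptides and single-mutation variants displayed on the E. coli surface, counted by deep sequencing, each peptide's frequency after selection divided by its frequency in the unselected input library; frequency after pTyr selection over input frequency; kinase dosed for 20-30% of maximal phosphorylation in three min.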

Sequence of MERTK (Q12866 whole entry, looked up): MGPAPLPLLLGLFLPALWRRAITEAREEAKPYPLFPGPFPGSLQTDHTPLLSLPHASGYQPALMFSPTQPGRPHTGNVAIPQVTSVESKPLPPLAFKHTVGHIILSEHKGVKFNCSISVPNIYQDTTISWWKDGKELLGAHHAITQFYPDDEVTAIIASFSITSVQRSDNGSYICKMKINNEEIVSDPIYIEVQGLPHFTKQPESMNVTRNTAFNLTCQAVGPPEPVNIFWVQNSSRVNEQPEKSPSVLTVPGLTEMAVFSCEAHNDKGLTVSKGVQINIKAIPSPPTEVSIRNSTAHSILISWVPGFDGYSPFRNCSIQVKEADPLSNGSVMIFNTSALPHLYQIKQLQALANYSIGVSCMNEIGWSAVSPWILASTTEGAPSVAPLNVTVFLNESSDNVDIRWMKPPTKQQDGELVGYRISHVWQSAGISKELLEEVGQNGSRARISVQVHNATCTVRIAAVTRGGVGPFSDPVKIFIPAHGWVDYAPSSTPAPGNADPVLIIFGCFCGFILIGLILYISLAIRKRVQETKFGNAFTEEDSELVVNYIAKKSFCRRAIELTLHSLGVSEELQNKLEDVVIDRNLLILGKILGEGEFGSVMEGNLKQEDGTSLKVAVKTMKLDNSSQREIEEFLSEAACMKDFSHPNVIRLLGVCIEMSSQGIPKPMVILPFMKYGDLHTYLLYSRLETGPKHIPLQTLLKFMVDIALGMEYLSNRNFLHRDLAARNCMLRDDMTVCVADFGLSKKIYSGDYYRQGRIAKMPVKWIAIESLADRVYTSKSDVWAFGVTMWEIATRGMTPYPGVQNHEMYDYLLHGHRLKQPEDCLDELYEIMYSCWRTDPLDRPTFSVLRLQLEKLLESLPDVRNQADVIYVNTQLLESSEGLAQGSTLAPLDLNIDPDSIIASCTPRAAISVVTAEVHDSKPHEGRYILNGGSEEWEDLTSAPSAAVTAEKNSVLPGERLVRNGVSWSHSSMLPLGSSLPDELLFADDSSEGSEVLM

Sequence | phosphorylation enrichment
FRQLQYCPSVE [CTNND2_Y508_YF] | 0.478
AEMKRYAESSS [RAI14_Y869] | 0.336
EPYEVYRIVPE [IRF8_Y110_K108E] | 1.05
RLLVVYPWTRR [HBB_Y36_Q40R] | 0.64
TAPFNYSFIFK [RAB14_Y8_YF] | 2.27
PYVYYYSYLLK [PTEN_Y178_R173P] | 5.9
LPHVIYCRLWR [SMAD2_Y128] | 0.871
SSDKVCAHQMV [MLH1_Y379_Y379C] | 0.859
TYGVAYRAKDK [CDK11B_Y453_V452A] | 0.621
GDPVQYNRTTD [MLPH_Y454] | 0.429
REGAKYVSHSA [ASS1_Y113_G117S] | 0.593
SIKGKYVTALY [KCNH2_Y611_D609G] | 0.358
VFSTDCFRVGG [NTRK2_Y706_Y706C_YF] | 0.549
QDKDLYPCPGT [RLF_Y671_R668K] | 0.613
QLYGAYLRIHA [BSCL2_Y213] | 0.905
TKFRNYLIPNG [CYP2C8_Y379_K383N] | 0.495
SETDDYAEIID [PTK2_Y397] | 0.625

Sequence | phosphorylation enrichment
IRTIDYRFTVC [IDS_Y497_W502C_YF] | 0.396
EAIMTYVSSFF [ACTN4_Y260_K255E_YF] | 0.422
EAEPYYCSLRD [NPHS1_Y1139_R1140C] | 2.28
SVVVPDEPPEV [TP53_Y220_Y220D] | 0.586
SLHPGYNFRYA [P2RX7_Y291_Y288H] | 0.622
FGSSSSGGAGG [RPA2_Y14_Y14S_YF] | 0.394
EREYKYGAHKY [OAT_Y50_N54K] | 0.436
DDERGYRRVRS [GIGYF2_Y268] | 0.455
AGRTGYDNREI [BCL2_Y9] | 0.429
NFRTTCVNANE [KCNH2_Y475_Y475C] | 0.423
KKFPDYIQIAM [SGMS2_Y59_YF] | 0.461
QISQDYGVLLE [PRDX3_Y172_R170Q] | 0.603
RALCHYFKLNI [ETV6_Y401_R399C_YF] | 0.634
HSFNSYTFPRL [PAK5_Y316_YF] | 0.55
SFCFRYRCAAQ [SUMF1_Y344_R349Q_YF] | 0.553
SYTDPYAQPSL [KMT2D_Y2378_P2382S] | 0.532

Tested on: c-Abl (mouse)
Assay: as above

Sequence | phosphorylation enrichment
FRQLQYCPSVE [CTNND2_Y508_YF] | 0.808
AEMKRYAESSS [RAI14_Y869] | 0.483
EPYEVYRIVPE [IRF8_Y110_K108E] | 1.25
RLLVVYPWTRR [HBB_Y36_Q40R] | 0.577
TAPFNYSFIFK [RAB14_Y8_YF] | 0.657
PYVYYYSYLLK [PTEN_Y178_R173P] | 3.68
LPHVIYCRLWR [SMAD2_Y128] | 1.47
SSDKVCAHQMV [MLH1_Y379_Y379C] | 0.587
TYGVAYRAKDK [CDK11B_Y453_V452A] | 0.567
GDPVQYNRTTD [MLPH_Y454] | 0.78
REGAKYVSHSA [ASS1_Y113_G117S] | 0.818
SIKGKYVTALY [KCNH2_Y611_D609G] | 0.517
VFSTDCFRVGG [NTRK2_Y706_Y706C_YF] | 1.04
QDKDLYPCPGT [RLF_Y671_R668K] | 0.726
QLYGAYLRIHA [BSCL2_Y213] | 0.915
TKFRNYLIPNG [CYP2C8_Y379_K383N] | 0.631
SETDDYAEIID [PTK2_Y397] | 1.05

Sequence | phosphorylation enrichment
IRTIDYRFTVC [IDS_Y497_W502C_YF] | 0.952
EAIMTYVSSFF [ACTN4_Y260_K255E_YF] | 0.842
EAEPYYCSLRD [NPHS1_Y1139_R1140C] | 1.62
SVVVPDEPPEV [TP53_Y220_Y220D] | 0.782
SLHPGYNFRYA [P2RX7_Y291_Y288H] | 0.637
FGSSSSGGAGG [RPA2_Y14_Y14S_YF] | 0.511
EREYKYGAHKY [OAT_Y50_N54K] | 0.571
DDERGYRRVRS [GIGYF2_Y268] | 0.563
AGRTGYDNREI [BCL2_Y9] | 0.974
NFRTTCVNANE [KCNH2_Y475_Y475C] | 0.808
KKFPDYIQIAM [SGMS2_Y59_YF] | 0.7
QISQDYGVLLE [PRDX3_Y172_R170Q] | 1.18
RALCHYFKLNI [ETV6_Y401_R399C_YF] | 1.09
HSFNSYTFPRL [PAK5_Y316_YF] | 0.849
SFCFRYRCAAQ [SUMF1_Y344_R349Q_YF] | 0.682
SYTDPYAQPSL [KMT2D_Y2378_P2382S] | 0.82

Target: Jak2 (UniProt O60674)
Sequence (O60674 whole entry, looked up): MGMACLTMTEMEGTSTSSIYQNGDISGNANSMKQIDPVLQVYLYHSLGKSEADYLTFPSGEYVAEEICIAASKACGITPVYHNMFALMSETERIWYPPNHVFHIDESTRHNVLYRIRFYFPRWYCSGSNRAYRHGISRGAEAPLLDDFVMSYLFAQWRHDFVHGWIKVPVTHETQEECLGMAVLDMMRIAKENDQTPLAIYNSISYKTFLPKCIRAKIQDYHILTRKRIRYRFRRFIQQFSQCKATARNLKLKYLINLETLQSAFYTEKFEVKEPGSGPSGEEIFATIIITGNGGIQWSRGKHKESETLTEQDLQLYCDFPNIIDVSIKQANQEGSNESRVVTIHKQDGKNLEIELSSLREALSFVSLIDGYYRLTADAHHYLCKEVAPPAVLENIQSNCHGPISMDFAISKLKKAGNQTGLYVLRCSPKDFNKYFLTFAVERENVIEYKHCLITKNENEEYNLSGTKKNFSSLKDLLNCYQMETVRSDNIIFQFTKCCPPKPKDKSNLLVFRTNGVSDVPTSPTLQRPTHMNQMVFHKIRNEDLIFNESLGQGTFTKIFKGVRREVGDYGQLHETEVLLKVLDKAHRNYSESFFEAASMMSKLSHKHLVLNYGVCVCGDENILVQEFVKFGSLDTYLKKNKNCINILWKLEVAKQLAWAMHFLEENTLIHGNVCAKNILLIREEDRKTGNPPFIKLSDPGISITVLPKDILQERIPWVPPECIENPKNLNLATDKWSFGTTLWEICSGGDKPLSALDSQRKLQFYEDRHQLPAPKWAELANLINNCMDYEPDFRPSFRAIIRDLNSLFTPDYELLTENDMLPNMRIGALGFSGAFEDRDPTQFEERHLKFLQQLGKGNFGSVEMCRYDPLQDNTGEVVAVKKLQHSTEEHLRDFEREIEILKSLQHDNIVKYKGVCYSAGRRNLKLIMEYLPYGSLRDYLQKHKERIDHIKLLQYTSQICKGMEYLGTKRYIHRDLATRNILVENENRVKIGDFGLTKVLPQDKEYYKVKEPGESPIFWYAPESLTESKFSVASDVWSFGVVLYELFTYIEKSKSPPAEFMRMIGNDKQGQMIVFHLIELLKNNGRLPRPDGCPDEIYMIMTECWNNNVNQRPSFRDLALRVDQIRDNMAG
Assay: as above

Sequence | phosphorylation enrichment
FRQLQYCPSVE [CTNND2_Y508_YF] | 0.901
AEMKRYAESSS [RAI14_Y869] | 0.582
EPYEVYRIVPE [IRF8_Y110_K108E] | 0.994
RLLVVYPWTRR [HBB_Y36_Q40R] | 0.469
TAPFNYSFIFK [RAB14_Y8_YF] | 0.757
PYVYYYSYLLK [PTEN_Y178_R173P] | 4.21
LPHVIYCRLWR [SMAD2_Y128] | 0.822
SSDKVCAHQMV [MLH1_Y379_Y379C] | 0.563
TYGVAYRAKDK [CDK11B_Y453_V452A] | 0.578
GDPVQYNRTTD [MLPH_Y454] | 0.959
REGAKYVSHSA [ASS1_Y113_G117S] | 0.691
SIKGKYVTALY [KCNH2_Y611_D609G] | 0.431
VFSTDCFRVGG [NTRK2_Y706_Y706C_YF] | 1.07
QDKDLYPCPGT [RLF_Y671_R668K] | 0.996
QLYGAYLRIHA [BSCL2_Y213] | 1.2
TKFRNYLIPNG [CYP2C8_Y379_K383N] | 0.536
SETDDYAEIID [PTK2_Y397] | 1.57

Sequence | phosphorylation enrichment
IRTIDYRFTVC [IDS_Y497_W502C_YF] | 1.14
EAIMTYVSSFF [ACTN4_Y260_K255E_YF] | 0.9
EAEPYYCSLRD [NPHS1_Y1139_R1140C] | 1.33
SVVVPDEPPEV [TP53_Y220_Y220D] | 1.19
SLHPGYNFRYA [P2RX7_Y291_Y288H] | 0.925
FGSSSSGGAGG [RPA2_Y14_Y14S_YF] | 0.669
EREYKYGAHKY [OAT_Y50_N54K] | 0.509
DDERGYRRVRS [GIGYF2_Y268] | 0.461
AGRTGYDNREI [BCL2_Y9] | 0.848
NFRTTCVNANE [KCNH2_Y475_Y475C] | 0.979
KKFPDYIQIAM [SGMS2_Y59_YF] | 1.07
QISQDYGVLLE [PRDX3_Y172_R170Q] | 1.32
RALCHYFKLNI [ETV6_Y401_R399C_YF] | 1.27
HSFNSYTFPRL [PAK5_Y316_YF] | 1.31
SFCFRYRCAAQ [SUMF1_Y344_R349Q_YF] | 0.745
SYTDPYAQPSL [KMT2D_Y2378_P2382S] | 0.718

Target: EPHB2 (UniProt P29323)
Sequence (P29323 whole entry, looked up): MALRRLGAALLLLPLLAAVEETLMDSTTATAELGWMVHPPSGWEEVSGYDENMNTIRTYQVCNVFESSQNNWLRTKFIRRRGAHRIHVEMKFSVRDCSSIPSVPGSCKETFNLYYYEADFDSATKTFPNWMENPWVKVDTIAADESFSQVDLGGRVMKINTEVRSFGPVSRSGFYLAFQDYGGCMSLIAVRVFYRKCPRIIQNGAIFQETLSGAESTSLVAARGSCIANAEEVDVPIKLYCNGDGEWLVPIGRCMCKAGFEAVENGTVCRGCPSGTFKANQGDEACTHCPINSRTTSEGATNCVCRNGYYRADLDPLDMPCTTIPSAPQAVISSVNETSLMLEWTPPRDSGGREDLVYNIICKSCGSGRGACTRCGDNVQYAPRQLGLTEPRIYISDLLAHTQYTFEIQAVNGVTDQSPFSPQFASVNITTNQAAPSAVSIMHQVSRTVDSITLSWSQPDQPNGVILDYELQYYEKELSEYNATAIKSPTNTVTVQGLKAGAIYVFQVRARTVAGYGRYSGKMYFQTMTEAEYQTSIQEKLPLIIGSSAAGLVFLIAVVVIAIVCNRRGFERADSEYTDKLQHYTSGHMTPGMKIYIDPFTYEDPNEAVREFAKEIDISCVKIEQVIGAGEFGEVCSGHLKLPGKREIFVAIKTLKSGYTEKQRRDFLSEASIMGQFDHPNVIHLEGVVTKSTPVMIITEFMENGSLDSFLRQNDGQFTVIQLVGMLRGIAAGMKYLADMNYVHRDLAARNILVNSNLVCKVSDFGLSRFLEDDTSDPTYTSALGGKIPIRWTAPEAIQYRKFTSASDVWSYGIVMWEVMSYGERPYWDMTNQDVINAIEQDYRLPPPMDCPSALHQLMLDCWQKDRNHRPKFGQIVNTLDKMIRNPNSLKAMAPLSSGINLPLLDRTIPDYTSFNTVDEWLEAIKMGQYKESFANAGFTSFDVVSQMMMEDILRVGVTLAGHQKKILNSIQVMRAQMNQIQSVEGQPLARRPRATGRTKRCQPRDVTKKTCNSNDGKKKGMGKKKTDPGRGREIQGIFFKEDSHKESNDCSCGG
Assay: as above

Sequence | phosphorylation enrichment
FRQLQYCPSVE [CTNND2_Y508_YF] | 0.605
AEMKRYAESSS [RAI14_Y869] | 0.394
EPYEVYRIVPE [IRF8_Y110_K108E] | 1.9
RLLVVYPWTRR [HBB_Y36_Q40R] | 0.597
TAPFNYSFIFK [RAB14_Y8_YF] | 0.692
PYVYYYSYLLK [PTEN_Y178_R173P] | 1.92
LPHVIYCRLWR [SMAD2_Y128] | 0.758
SSDKVCAHQMV [MLH1_Y379_Y379C] | 0.443
TYGVAYRAKDK [CDK11B_Y453_V452A] | 0.592
GDPVQYNRTTD [MLPH_Y454] | 0.551
REGAKYVSHSA [ASS1_Y113_G117S] | 0.468
SIKGKYVTALY [KCNH2_Y611_D609G] | 0.374
VFSTDCFRVGG [NTRK2_Y706_Y706C_YF] | 0.462
QDKDLYPCPGT [RLF_Y671_R668K] | 0.857
QLYGAYLRIHA [BSCL2_Y213] | 1.3
TKFRNYLIPNG [CYP2C8_Y379_K383N] | 0.736
SETDDYAEIID [PTK2_Y397] | 0.838

Sequence | phosphorylation enrichment
IRTIDYRFTVC [IDS_Y497_W502C_YF] | 0.579
EAIMTYVSSFF [ACTN4_Y260_K255E_YF] | 0.726
EAEPYYCSLRD [NPHS1_Y1139_R1140C] | 1.21
SVVVPDEPPEV [TP53_Y220_Y220D] | 0.665
SLHPGYNFRYA [P2RX7_Y291_Y288H] | 0.497
FGSSSSGGAGG [RPA2_Y14_Y14S_YF] | 0.31
EREYKYGAHKY [OAT_Y50_N54K] | 0.452
DDERGYRRVRS [GIGYF2_Y268] | 0.398
AGRTGYDNREI [BCL2_Y9] | 0.394
NFRTTCVNANE [KCNH2_Y475_Y475C] | 0.605
KKFPDYIQIAM [SGMS2_Y59_YF] | 0.672
QISQDYGVLLE [PRDX3_Y172_R170Q] | 1.21
RALCHYFKLNI [ETV6_Y401_R399C_YF] | 0.885
HSFNSYTFPRL [PAK5_Y316_YF] | 0.629
SFCFRYRCAAQ [SUMF1_Y344_R349Q_YF] | 0.523
SYTDPYAQPSL [KMT2D_Y2378_P2382S] | 0.568

Reference: the supplement of paper PMC10065799, “High-throughput profiling of sequence recognition by tyrosine kinases and SH2 domains using bacterial peptide display” (eLife, 2023)
